The source of these data is paper PMC10666025, “In pursuit of degenerative brain disease diagnosis: Dementia biomarkers detected by DNA aptamer-attached portable graphene biosensor”.

Series [1] has as its target Amyloid-beta 1-42, brain-derived (human (AD patient brain), UniProt P05067 672-713). Description: GFET Dirac shift; detected to ~10 fM, dose-dependent; GFET with immobilised aptamer; protein in 0.1x PBS (LoD series) or PBS; aptamer dissolved in 1x PBS + 0.5 mM MgCl2; pH and temperature of binding not given. Particulars: protein: native.
In series [2] the target is Amyloid-beta 1-42 (synthetic) (UniProt P05067 672-713). Description: GFET Dirac shift; LoD 10 fM (not a Kd); GFET with immobilised aptamer; protein in 0.1x PBS (LoD series) or PBS; aptamer dissolved in 1x PBS + 0.5 mM MgCl2; pH and temperature of binding not given.
The target in series [3] is alpha-synuclein, brain-derived (human (PD patient brain), UniProt P37840 1-140). Description: GFET Dirac shift; detected to 10-100 nM as printed; GFET with immobilised aptamer; protein in 0.1x PBS (LoD series) or PBS; aptamer dissolved in 1x PBS + 0.5 mM MgCl2; pH and temperature of binding not given.
The target in series [4] is alpha-synuclein (synthetic/commercial) (UniProt P37840 1-140). The experiment in a line: GFET Dirac shift; LoD 10-100 fM (not a Kd); GFET with immobilised aptamer; protein in 0.1x PBS (LoD series) or PBS; aptamer dissolved in 1x PBS + 0.5 mM MgCl2; pH and temperature of binding not given.
Another series deals with Tau, brain-derived (human (AD patient brain), UniProt P10636-8 1-441). Description: GFET Dirac shift; detected to 10-100 fM; GFET with immobilised aptamer; protein in 0.1x PBS (LoD series) or PBS; aptamer dissolved in 1x PBS + 0.5 mM MgCl2; pH and temperature of binding not given. Particulars: protein: native.
For series [5], the target named is Tau441 (synthetic/commercial) (human, UniProt P10636-8 1-441). The experiment in a line: GFET Dirac shift; LoD 1-10 pM in abstract, ~100 fM in Results (not a Kd); GFET with immobilised aptamer; protein in 0.1x PBS (LoD series) or PBS; aptamer dissolved in 1x PBS + 0.5 mM MgCl2; pH and temperature of binding not given.
Sequence of Tau441 (synthetic/commercial) (P10636 other isoform, or with tags, fused parts or gaps): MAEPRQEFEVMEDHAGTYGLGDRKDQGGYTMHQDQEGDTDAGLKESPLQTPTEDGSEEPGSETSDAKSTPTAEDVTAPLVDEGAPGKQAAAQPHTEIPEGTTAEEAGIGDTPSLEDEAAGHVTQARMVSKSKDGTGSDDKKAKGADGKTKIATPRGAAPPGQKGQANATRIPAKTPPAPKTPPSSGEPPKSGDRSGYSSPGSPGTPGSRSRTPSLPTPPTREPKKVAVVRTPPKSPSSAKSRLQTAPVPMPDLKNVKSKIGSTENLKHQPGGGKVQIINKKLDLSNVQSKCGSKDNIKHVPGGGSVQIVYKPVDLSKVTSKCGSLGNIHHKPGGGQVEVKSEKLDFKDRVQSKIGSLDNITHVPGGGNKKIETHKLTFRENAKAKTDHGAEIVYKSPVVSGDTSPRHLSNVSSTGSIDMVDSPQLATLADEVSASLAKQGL

Sequence of Tau, brain-derived (P10636 other isoform, or with tags, fused parts or gaps): as above
Sequence of Amyloid-beta 1-42 (synthetic) (P05067 672-713): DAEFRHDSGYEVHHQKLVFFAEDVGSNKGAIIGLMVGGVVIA
Sequence of Amyloid-beta 1-42, brain-derived (P05067 672-713): as above

For the molecule CCGGTGGGGGACCAGTACAAAAGTGGGTAGGGCGGGTTGGAAAA (ssDNA, 3' amino) [Abeta aptamer Abeta7-92-1H1], the binding result in series [1] and in series [2] was “binds” throughout.

B1: alpha-synuclein aptamer F5R1 (ssDNA)
DNA: ATCGAGTGTGTACGGGGTCCGGTAGGGTGGCGAGGTCTTCCTGTCGTAGCAGGATCCA
modifications: 3' amino
Consider B1, for which the binding result in series [3] and in series [4] was “binds” throughout.

B2: Tau aptamer IT2 (ssDNA)
DNA: CAGCACCGTCAACTGAATAAGGACTGCTTAGGATTGCGATGATTCAGGGTGATGCGATGGAGATGT
modifications: 3' amino
For B2, the binding result with Tau, brain-derived is listed as “binds”; in series [5], “binds”.
